Measured values from the Human Domainome abundance scans (Beltran et al. 2025).
± gives the uncertainty stated by the source.

B1: Pituitary-specific positive transcription factor 1, residues 130 to 198; numbered along this chain, P28069 (parent)
chain: RELEKFANEFKVRRIKLGYTQTNVGEALAAVHGSEFSQTTICRFENLQLSFKNACKLKAILSKWLEEAE

Variants of: B1
Test: abundance fitness (aPCA) (normalised: wild type 0, dead -1); higher = more abundant; growth selection in yeast, the domain comes from the species named
Details: Homo sapiens
With RELEKFANEFKVRRIKLGYTQTNVGEALAAVHGSEFSQTTICRFENLDLSFKNACKLKAILSKWLEEAE the abundance fitness was -0.055 ± 0.066. Variant RELEKFANEFKVRRIKLGYTQTNVGEALAAVHGSEFSQTTMCRFENLQLSFKNACKLKAILSKWLEEAE has an abundance fitness of -0.446 ± 0.15. Work on RELEKFANRFKVRRIKLGYTQTNVGEALAAVHGSEFSQTTICRFENLQLSFKNACKLKAILSKWLEEAE yielded an abundance fitness of -0.645 ± 0.16. Work on RELEKFANEFKVRRIKLGYTQTNVYEALAAVHGSEFSQTTICRFENLQLSFKNACKLKAILSKWLEEAE yielded an abundance fitness of 0.101 ± 0.12. For RELEKFANEFKVRRIKLGYTSTNVGEALAAVHGSEFSQTTICRFENLQLSFKNACKLKAILSKWLEEAE, the abundance fitness was -0.506 ± 0.058. Variant RELEKFANEFKVRRIKLGYTQTNVGEALAAVHGSEFSQTTICRRENLQLSFKNACKLKAILSKWLEEAE has an abundance fitness of -0.871 ± 0.14. Variant RELEKFAIEFKVRRIKLGYTQTNVGEALAAVHGSEFSQTTICRFENLQLSFKNACKLKAILSKWLEEAE has an abundance fitness of 0.024 ± 0.14. Work on RELEKFANEFKVRSIKLGYTQTNVGEALAAVHGSEFSQTTICRFENLQLSFKNACKLKAILSKWLEEAE yielded an abundance fitness of -0.995 ± 0.2. Variant RELEKFANEFKVRRIKLGYTQTNVGEALAAVHGSEFSQTTICRFLNLQLSFKNACKLKAILSKWLEEAE has an abundance fitness of -0.883 ± 0.14. RELEKFANEFKVRRIKLGYTQTNVGEALAAVHGSEFSQTTICRYENLQLSFKNACKLKAILSKWLEEAE showed an abundance fitness of -0.842 ± 0.13. With RELEKFANEFKVRRIKLGYTQTNVGEALAAVHGSEFSQTTICRFANLQLSFKNACKLKAILSKWLEEAE the abundance fitness was -0.415 ± 0.1. RELEKFANEFKVRRIKLGYTQTNVGEALAAVHGSEFSQTTICRFENLQLSFKNACKLKAFLSKWLEEAE showed an abundance fitness of -0.725 ± 0.22. Variant RELEKFANEFKVRRIKLGYTQTNNGEALAAVHGSEFSQTTICRFENLQLSFKNACKLKAILSKWLEEAE has an abundance fitness of -0.581 ± 0.22. Work on RELMKFANEFKVRRIKLGYTQTNVGEALAAVHGSEFSQTTICRFENLQLSFKNACKLKAILSKWLEEAE yielded an abundance fitness of -0.451 ± 0.21. With RELEKFANEFKVRRIKCGYTQTNVGEALAAVHGSEFSQTTICRFENLQLSFKNACKLKAILSKWLEEAE the abundance fitness was -0.613 ± 0.11. For RELEKFAYEFKVRRIKLGYTQTNVGEALAAVHGSEFSQTTICRFENLQLSFKNACKLKAILSKWLEEAE, the abundance fitness was -0.094 ± 0.15. Work on RELEKFANEFKVRRIKLGYTQTNVGEALAAVHGSEFSQTTICRFENLQLSSKNACKLKAILSKWLEEAE yielded an abundance fitness of -0.189 ± 0.047. In the case of RELEKFANEFKVRRIKLGYGQTNVGEALAAVHGSEFSQTTICRFENLQLSFKNACKLKAILSKWLEEAE, the abundance fitness is reported as -0.662 ± 0.12. RELEKFANEFKVRRIKLGYTQTNVGEALAAVHGSDFSQTTICRFENLQLSFKNACKLKAILSKWLEEAE gave an abundance fitness of -0.144 ± 0.085. In the case of RELEKFANEFKVRRIKLGYTQTNVGEALAAVHGSEFSQTTICRFENLQLSFKNACKLKAILSKWLEEAC, the abundance fitness is reported as -0.537 ± 0.11. RELEKFANEFKVRRIKLGYTQTNVGEALAAVHGSQFSQTTICRFENLQLSFKNACKLKAILSKWLEEAE gave an abundance fitness of -0.059 ± 0.15. RELEKFANEFKVRRIKLGDTQTNVGEALAAVHGSEFSQTTICRFENLQLSFKNACKLKAILSKWLEEAE showed an abundance fitness of -0.696 ± 0.5. RELEWFANEFKVRRIKLGYTQTNVGEALAAVHGSEFSQTTICRFENLQLSFKNACKLKAILSKWLEEAE gave an abundance fitness of -0.596 ± 0.063. For RELEKFANEFKVRRIKLGYTQTNVGEALAAVHGSEFSQTTICRFENLQLSFKNACKLKAILQKWLEEAE, the abundance fitness was 0.047 ± 0.066. Work on RELEKFANSFKVRRIKLGYTQTNVGEALAAVHGSEFSQTTICRFENLQLSFKNACKLKAILSKWLEEAE yielded an abundance fitness of -0.213 ± 0.082. Work on RELEKFANEFKVRRIKLLYTQTNVGEALAAVHGSEFSQTTICRFENLQLSFKNACKLKAILSKWLEEAE yielded an abundance fitness of -0.62 ± 0.1. RELEKFANEFKVRRIKLGYTQTNVGEALAAVHGSEFSQTTICRFENLQLSFKNACKLKAILSKWLTEAE gave an abundance fitness of -0.115 ± 0.093. In the case of RELEKFANEFKVRRIKLGYTQTNVGEALAAVHGSEFSQTTICRFENLQLSFKNATKLKAILSKWLEEAE, the abundance fitness is reported as -0.098 ± 0.13. RELEKFANEFKVRRIKLGYTQTNVGEALAAVHGSEFSQTTICRFENLQLSFINACKLKAILSKWLEEAE showed an abundance fitness of -0.463 ± 0.27. RELEKFANEFKVRRIKLGYTQTNVGEALAAPHGSEFSQTTICRFENLQLSFKNACKLKAILSKWLEEAE gave an abundance fitness of -0.912 ± 0.19. Work on RELEKFANEFKVRRIKLGYTQTNVGEALAAVHGPEFSQTTICRFENLQLSFKNACKLKAILSKWLEEAE yielded an abundance fitness of 0.133 ± 0.07. RELEKFANEFKVRRIKLGYTQTNVGEALAAVHGSEFSQTLICRFENLQLSFKNACKLKAILSKWLEEAE gave an abundance fitness of -0.003 ± 0.073. Variant RELEKFANEFKVRRIKLGYTQMNVGEALAAVHGSEFSQTTICRFENLQLSFKNACKLKAILSKWLEEAE has an abundance fitness of 0.08 ± 0.082. With RELEKFANEFKVRRIKLGYTQTNVGEALAAVHGSEFSQTTICRFENLQLSFSNACKLKAILSKWLEEAE the abundance fitness was -0.002 ± 0.076. Variant RELEKFANEFKVRRIKKGYTQTNVGEALAAVHGSEFSQTTICRFENLQLSFKNACKLKAILSKWLEEAE has an abundance fitness of -0.804 ± 0.26. For RELEKFANEFKVRRIKLGYTQTNVGEALAAVHGSENSQTTICRFENLQLSFKNACKLKAILSKWLEEAE, the abundance fitness was -0.758 ± 0.49. Variant RELEKFANEFKVRRIKLGYTQTNVGEALAAVHGSEFSQTTICRFENLQLSFKNACKLKAILSKKLEEAE has an abundance fitness of -0.461 ± 0.16. RELEKFANEFKVRRIKLGYTQQNVGEALAAVHGSEFSQTTICRFENLQLSFKNACKLKAILSKWLEEAE showed an abundance fitness of 0.209 ± 0.1. Work on RELEKFANEFKVRRIKLGYTQTNVGEALAAVHGSEFSQTTICTFENLQLSFKNACKLKAILSKWLEEAE yielded an abundance fitness of -0.825 ± 0.15.
